Results: paper PMC3187708 (The Journal of Cell Biology, 2011)

Biological target: T1, 6His-FIP5 (human, UniProt Q9BXF6 1-653)
T1 sequence (looked up): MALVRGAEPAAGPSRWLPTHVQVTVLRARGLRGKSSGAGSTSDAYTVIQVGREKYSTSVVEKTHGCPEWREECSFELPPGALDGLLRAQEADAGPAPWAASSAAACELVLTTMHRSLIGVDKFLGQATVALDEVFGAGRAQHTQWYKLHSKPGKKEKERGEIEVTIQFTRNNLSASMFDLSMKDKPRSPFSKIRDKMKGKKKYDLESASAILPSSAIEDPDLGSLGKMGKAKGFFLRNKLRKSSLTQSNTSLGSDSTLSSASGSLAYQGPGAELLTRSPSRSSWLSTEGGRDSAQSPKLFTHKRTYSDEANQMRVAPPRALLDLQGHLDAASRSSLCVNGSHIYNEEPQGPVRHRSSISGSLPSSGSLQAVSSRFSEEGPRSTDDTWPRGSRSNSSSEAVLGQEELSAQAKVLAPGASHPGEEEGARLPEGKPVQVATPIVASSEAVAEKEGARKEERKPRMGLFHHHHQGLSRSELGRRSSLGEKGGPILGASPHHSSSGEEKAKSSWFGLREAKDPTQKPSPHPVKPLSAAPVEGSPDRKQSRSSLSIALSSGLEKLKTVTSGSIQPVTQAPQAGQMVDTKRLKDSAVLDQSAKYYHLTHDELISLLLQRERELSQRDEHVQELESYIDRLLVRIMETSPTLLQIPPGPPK
Test: ITC

B1: GST-SNX18 (natural protein, human, UniProt Q96RF0 1-628, looked up)
chain: MALRARALYDFRSENPGEISLREHEVLSLCSEQDIEGWLEGVNSRGDRGLFPASYVQVIRAPEPGPAGDGGPGAPARYANVPPGGFEPLPVAPPASFKPPPDAFQALLQPQQAPPPSTFQPPGAGFPYGGGALQPSPQQLYGGYQASQGSDDDWDDEWDDSSTVADEPGALGSGAYPDLDGSSSAGVGAAGRYRLSTRSDLSLGSRGGSVPPQHHPSGPKSSATVSRNLNRFSTFVKSGGEAFVLGEASGFVKDGDKLCVVLGPYGPEWQENPYPFQCTIDDPTKQTKFKGMKSYISYKLVPTHTQVPVHRRYKHFDWLYARLAEKFPVISVPHLPEKQATGRFEEDFISKRRKGLIWWMNHMASHPVLAQCDVFQHFLTCPSSTDEKAWKQGKRKAEKDEMVGANFFLTLSTPPAAALDLQEVESKIDGFKCFTKKMDDSALQLNHTANEFARKQVTGFKKEYQKVGQSFRGLSQAFELDQQAFSVGLNQAIAFTGDAYDAIGELFAEQPRQDLDPVMDLLALYQGHLANFPDIIHVQKGKAWPLEQVIWSVLCRLKGATLTAVPLWVSESYSTGEEASRDVDAWVFSLECKLDCSTGSFLLEYLALGNEYSFSKVQRVPLMTVLSF
  Kd: 1560 nM
